The text below walks through data of publication PMC2064744 (The Journal of Cell Biology, 2007).

The target of assay [1] is T1, tandem PALS L27 domains.
T1 chain: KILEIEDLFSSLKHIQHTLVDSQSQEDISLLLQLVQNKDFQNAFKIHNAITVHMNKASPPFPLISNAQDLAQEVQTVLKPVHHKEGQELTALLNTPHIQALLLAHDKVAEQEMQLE
The assay can be described thus: SEC.

In assay [2] the target is T2, tandem L27 domain of rat CASK (L27NL27C_CASK, residues 329-460) (rat, UniProt Q62915 329-460).
T2 sequence: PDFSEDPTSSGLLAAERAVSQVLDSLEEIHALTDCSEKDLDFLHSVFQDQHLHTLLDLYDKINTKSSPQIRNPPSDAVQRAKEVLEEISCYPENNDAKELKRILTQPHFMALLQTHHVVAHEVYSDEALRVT
Nature of the assay: SEC. A general note: SEC sorts molecules by how far they enter the pores of the column.

B1: PATJ L27 (domain or fragment)
chain: MPENPAAEKMQVLQVLDRLRGKLQEKGDTTQNEKLSAFYETLKSPLFNQILTLQQSIKQLKGQLS
A word on the stoichiometry N: it is a count of units in the complex or per binding partner. As to B1, the “stoichiometry N” value in assay [1] was found to be 1.

B2: L27 domain of rat DLG (L27DLG, residues 1-65) (domain or fragment)
chain: MPVRKQDTQRALHLLEEYRSKLSQTEDRQLRSSIERVISIFQSNLFQALIDIQEFYEVTLLDNPK
B2: the “stoichiometry N” value in assay [2] was found to be 1.

B3: L27 domain of mouse MALS (L27_MALS, residues 2-78) (domain or fragment)
chain: AALGEPVRLERDICRAIELLEKLQRSGEVPPQKLQALQRVLQSEFCNAVREVYEHVYETVDISSSPEVRANATAKAT
With B3, the “stoichiometry N” value in assay [2] came to 1.

B4: MALS L27 (in the MALS/PALS/PATJ L27 complex, unpublished data) (domain or fragment)
chain: AALVEPLGLERDVSRAVELLERLQRSGELPPQKLQALQRVLQSRFCSAIREVYEQLYDTLDITGSAEVRAHATAKAT
B4: the “stoichiometry N” value in assay [1] is 1.
